Laboratory results: patent publication US20240287208A1 (CONCEPT TO MEDICINE BIOTECH, published 2024)

Columns and labels:
[1] = target: T1, human CD40 on the cell surface (human, UniProt P25942 21-277); experiment: FACS, human dendritic cells, MFI
T1 construct: whole, on cells; also called cell surface CD40; Jurkat-CD40

[2] = target: T1, human CD40 on the cell surface; experiment: FACS, Jurkat cells overexpressing human CD40, PE anti-human IgG, MFI
Description: To evaluate the binding affinity of 5T4-CD40 bispecific antibodies to cell surface CD40, bispecific antibodies with formats of b 1 (42p155z2), b12 (42p155z2), b13 (42p155z2), b16 (42p155z2), b17 (42p155z2) and b18 (2p1130) were tested in Jurkat cell lines that overexpressed CD40 by FACS. A total number of 1×10⁵ Jurkat-CD40 cells in each well were incubated with 5-fold serially diluted antibodies starting from 100 nM for 30 minutes at 4° C. in FACS buffer. After wash by FACS buffer, PE conjugated-anti-human IgG antibody was added to each well and incubated at 4° C. for 30 minutes. After wash, MFI of PE was evaluated by MACSQuant Analyzer 16.

T1 sequence (P25942 21-277): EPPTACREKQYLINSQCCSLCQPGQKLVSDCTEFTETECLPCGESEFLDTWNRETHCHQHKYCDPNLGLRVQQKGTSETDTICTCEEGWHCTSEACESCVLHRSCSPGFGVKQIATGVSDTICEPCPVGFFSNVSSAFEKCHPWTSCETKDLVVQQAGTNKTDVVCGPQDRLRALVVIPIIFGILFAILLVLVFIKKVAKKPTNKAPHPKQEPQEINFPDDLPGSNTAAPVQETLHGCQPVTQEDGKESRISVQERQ

B1: b16 (42p155z2)-LALA humanized anti-5T4/CD40 bispecific antibody (bispecific antibody, human IgG1, kappa, L234A L235A)
heavy 1: QVQLVQSGAEVKKPGASVKVSCKASGYAFSSSWMNWVRQAPGQGLEWMGRIYREDGHTNYNGKFKGRVTMTADKSITTAYMELSRLRSDDTAVYYCANGGAMDYWGQGTLVTVSSASTKGPSVFPLAPSSKSTSGGTAALGCLVKDYFPEPVTVSWNSGALTSGVHTFPAVLQSSGLYSLSSVVTVPSSSLGTQTYICNVNHKPSNTKVDKKVEPKSCDKTHTCPPCPAPEAAGGPSVFLFPPKPKDTLMISRTPEVTCVVVDVSHEDPEVKFNWYVDGVEVHNAKTKPREEQYNSTYRVVSVLTVLHQDWLNGKEYKCKVSNKALPAPIEKTISKAKGQPREPQVCTLPPSREEMTKNQVSLSCAVKGFYPSDIAVEWESNGQPENNYKTTPPVLDSDGSFFLVSKLTVDKSRWQQGNVFSCSVMHEALHNHYTQKSLSLSPGK
light: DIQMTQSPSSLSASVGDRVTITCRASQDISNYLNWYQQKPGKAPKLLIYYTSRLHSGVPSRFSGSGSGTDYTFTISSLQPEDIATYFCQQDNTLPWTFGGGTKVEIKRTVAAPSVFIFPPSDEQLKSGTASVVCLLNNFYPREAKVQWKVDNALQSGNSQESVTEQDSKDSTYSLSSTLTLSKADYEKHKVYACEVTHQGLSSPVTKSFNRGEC
heavy 2: not shown
- EC50 (read off the curve) [1]: ~0.5 nM

B2: b16 (42p155z2) anti-5T4/CD40 bispecific antibody (bispecific antibody, human IgG1, kappa, N297A)
heavy 1: EVQLQQSGPELVKPGASVKISCKASGYAFSSSWMNWVKQRPGKGLEWIGRIYREDGHTNYNGKFKGKATLTADKSSTTAYMQLTSLTSEDSAVYFCANGGAMDYWGQGTSVTVSSASTKGPSVFPLAPSSKSTSGGTAALGCLVKDYFPEPVTVSWNSGALTSGVHTFPAVLQSSGLYSLSSVVTVPSSSLGTQTYICNVNHKPSNTKVDKKVEPKSCDKTHTCPPCPAPELLGGPSVFLFPPKPKDTLMISRTPEVTCVVVDVSHEDPEVKFNWYVDGVEVHNAKTKPREEQYASTYRVVSVLTVLHQDWLNGKEYKCKVSNKALPAPIEKTISKAKGQPREPQVCTLPPSREEMTKNQVSLSCAVKGFYPSDIAVEWESNGQPENNYKTTPPVLDSDGSFFLVSKLTVDKSRWQQGNVFSCSVMHEALHNHYTQKSLSLSPGK
light: DIQMTQSTSSLSASLGDRVTISCRASQDISNYLNWYQQKPDGTVKLLIYYTSRLHSGVPSRFSGSGSGTDYSLTISNLEQEDIATYFCQQDNTLPWTFGGGTKLEIKRTVAAPSVFIFPPSDEQLKSGTASVVCLLNNFYPREAKVQWKVDNALQSGNSQESVTEQDSKDSTYSLSSTLTLSKADYEKHKVYACEVTHQGLSSPVTKSFNRGEC
heavy 2: not shown
notes: also called 1+2 b16 format; chimeric antibody b16 (42p155z2)
- EC50 (read off the curve) [1]: ~0.7 nM
- EC50 (read off the curve) [2]: ~0.5 nM
